# Data reported in patent publication US20230002496A1 (STAIDSON BEIJING BIOPHARMACEUTICALS, published 2023).
# T1: human GM-CSFRα, full length on cells (human, UniProt P15509 23-400)
# T1 sequence: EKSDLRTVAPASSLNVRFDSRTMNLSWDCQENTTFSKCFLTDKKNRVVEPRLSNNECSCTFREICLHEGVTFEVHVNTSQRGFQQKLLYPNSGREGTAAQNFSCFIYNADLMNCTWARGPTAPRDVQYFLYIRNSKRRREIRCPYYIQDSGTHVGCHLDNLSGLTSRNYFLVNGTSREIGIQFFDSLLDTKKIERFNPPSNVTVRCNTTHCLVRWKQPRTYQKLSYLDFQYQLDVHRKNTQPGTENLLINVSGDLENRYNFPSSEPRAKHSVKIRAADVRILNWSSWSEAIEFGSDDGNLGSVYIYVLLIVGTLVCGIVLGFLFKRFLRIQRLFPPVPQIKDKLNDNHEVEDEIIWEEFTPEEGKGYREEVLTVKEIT
# B1: E35-scFv HT28E (scFv, V domains shown)
# VH: QMQLVQSGAEVKKPGASVKVSCKVSGYELTELSIHWVRQAPGKGLEWMGGFDPEDGETIYAQKFQGRVTMTGDTSTDTAYLELSSLRSEDTALYYCATGRYTSLATTYGFDYWGQGTLVTVSS
# VL: EIVMTQSPATLSLSPGERATLSCRASQSVSSYLAWYQQKPGQAPRLLIYGASSRATGIPDRFSGSGSGTDFTLTISRLEPEDFAVYYCQQYDNWPYTFGQGTKLEIK
# B2: E35-scFv HT28M (scFv, V domains shown)
# VH: QMQLVQSGAEVKKPGASVKVSCKVSGYMLTELSIHWVRQAPGKGLEWMGGFDPEDGETIYAQKFQGRVTMTGDTSTDTAYLELSSLRSEDTALYYCATGRYTSLATTYGFDYWGQGTLVTVSS
# VL: EIVMTQSPATLSLSPGERATLSCRASQSVSSYLAWYQQKPGQAPRLLIYGASSRATGIPDRFSGSGSGTDFTLTISRLEPEDFAVYYCQQYDNWPYTFGQGTKLEIK
# B3: E35-scFv LS26G (scFv, V domains shown)
# VH: QMQLVQSGAEVKKPGASVKVSCKVSGYTLTELSIHWVRQAPGKGLEWMGGFDPEDGETIYAQKFQGRVTMTGDTSTDTAYLELSSLRSEDTALYYCATGRYTSLATTYGFDYWGQGTLVTVSS
# VL: EIVMTQSPATLSLSPGERATLSCRAGQSVSSYLAWYQQKPGQAPRLLIYGASSRATGIPDRFSGSGSGTDFTLTISRLEPEDFAVYYCQQYDNWPYTFGQGTKLEIK
# B4: E35-scFv LS26I (scFv, V domains shown)
# VH: QMQLVQSGAEVKKPGASVKVSCKVSGYTLTELSIHWVRQAPGKGLEWMGGFDPEDGETIYAQKFQGRVTMTGDTSTDTAYLELSSLRSEDTALYYCATGRYTSLATTYGFDYWGQGTLVTVSS
# VL: EIVMTQSPATLSLSPGERATLSCRAIQSVSSYLAWYQQKPGQAPRLLIYGASSRATGIPDRFSGSGSGTDFTLTISRLEPEDFAVYYCQQYDNWPYTFGQGTKLEIK
# B5: E35-scFv HT28G (scFv, V domains shown)
# VH: QMQLVQSGAEVKKPGASVKVSCKVSGYGLTELSIHWVRQAPGKGLEWMGGFDPEDGETIYAQKFQGRVTMTGDTSTDTAYLELSSLRSEDTALYYCATGRYTSLATTYGFDYWGQGTLVTVSS
# VL: EIVMTQSPATLSLSPGERATLSCRASQSVSSYLAWYQQKPGQAPRLLIYGASSRATGIPDRFSGSGSGTDFTLTISRLEPEDFAVYYCQQYDNWPYTFGQGTKLEIK
# B6: E35-scFv HT28P (scFv, V domains shown)
# VH: QMQLVQSGAEVKKPGASVKVSCKVSGYPLTELSIHWVRQAPGKGLEWMGGFDPEDGETIYAQKFQGRVTMTGDTSTDTAYLELSSLRSEDTALYYCATGRYTSLATTYGFDYWGQGTLVTVSS
# VL: EIVMTQSPATLSLSPGERATLSCRASQSVSSYLAWYQQKPGQAPRLLIYGASSRATGIPDRFSGSGSGTDFTLTISRLEPEDFAVYYCQQYDNWPYTFGQGTKLEIK
# B7: E35-scFv LS26Q (scFv, V domains shown)
# VH: QMQLVQSGAEVKKPGASVKVSCKVSGYTLTELSIHWVRQAPGKGLEWMGGFDPEDGETIYAQKFQGRVTMTGDTSTDTAYLELSSLRSEDTALYYCATGRYTSLATTYGFDYWGQGTLVTVSS
# VL: EIVMTQSPATLSLSPGERATLSCRAQQSVSSYLAWYQQKPGQAPRLLIYGASSRATGIPDRFSGSGSGTDFTLTISRLEPEDFAVYYCQQYDNWPYTFGQGTKLEIK
# B8: E35-scFv HT28C (scFv, V domains shown)
# VH: QMQLVQSGAEVKKPGASVKVSCKVSGYCLTELSIHWVRQAPGKGLEWMGGFDPEDGETIYAQKFQGRVTMTGDTSTDTAYLELSSLRSEDTALYYCATGRYTSLATTYGFDYWGQGTLVTVSS
# VL: EIVMTQSPATLSLSPGERATLSCRASQSVSSYLAWYQQKPGQAPRLLIYGASSRATGIPDRFSGSGSGTDFTLTISRLEPEDFAVYYCQQYDNWPYTFGQGTKLEIK
# B9: E35-scFv HT28K (scFv, V domains shown)
# VH: QMQLVQSGAEVKKPGASVKVSCKVSGYKLTELSIHWVRQAPGKGLEWMGGFDPEDGETIYAQKFQGRVTMTGDTSTDTAYLELSSLRSEDTALYYCATGRYTSLATTYGFDYWGQGTLVTVSS
# VL: EIVMTQSPATLSLSPGERATLSCRASQSVSSYLAWYQQKPGQAPRLLIYGASSRATGIPDRFSGSGSGTDFTLTISRLEPEDFAVYYCQQYDNWPYTFGQGTKLEIK
# B10: E35-scFv LS26A (scFv, V domains shown)
# VH: QMQLVQSGAEVKKPGASVKVSCKVSGYTLTELSIHWVRQAPGKGLEWMGGFDPEDGETIYAQKFQGRVTMTGDTSTDTAYLELSSLRSEDTALYYCATGRYTSLATTYGFDYWGQGTLVTVSS
# VL: EIVMTQSPATLSLSPGERATLSCRAAQSVSSYLAWYQQKPGQAPRLLIYGASSRATGIPDRFSGSGSGTDFTLTISRLEPEDFAVYYCQQYDNWPYTFGQGTKLEIK
# B11: E35-scFv LS26L (scFv, V domains shown)
# VH: QMQLVQSGAEVKKPGASVKVSCKVSGYTLTELSIHWVRQAPGKGLEWMGGFDPEDGETIYAQKFQGRVTMTGDTSTDTAYLELSSLRSEDTALYYCATGRYTSLATTYGFDYWGQGTLVTVSS
# VL: EIVMTQSPATLSLSPGERATLSCRALQSVSSYLAWYQQKPGQAPRLLIYGASSRATGIPDRFSGSGSGTDFTLTISRLEPEDFAVYYCQQYDNWPYTFGQGTKLEIK
# B12: E35-scFv HT28S (scFv, V domains shown)
# VH: QMQLVQSGAEVKKPGASVKVSCKVSGYSLTELSIHWVRQAPGKGLEWMGGFDPEDGETIYAQKFQGRVTMTGDTSTDTAYLELSSLRSEDTALYYCATGRYTSLATTYGFDYWGQGTLVTVSS
# VL: EIVMTQSPATLSLSPGERATLSCRASQSVSSYLAWYQQKPGQAPRLLIYGASSRATGIPDRFSGSGSGTDFTLTISRLEPEDFAVYYCQQYDNWPYTFGQGTKLEIK
# B13: E35-scFv LS26K (scFv, V domains shown)
# VH: QMQLVQSGAEVKKPGASVKVSCKVSGYTLTELSIHWVRQAPGKGLEWMGGFDPEDGETIYAQKFQGRVTMTGDTSTDTAYLELSSLRSEDTALYYCATGRYTSLATTYGFDYWGQGTLVTVSS
# VL: EIVMTQSPATLSLSPGERATLSCRAKQSVSSYLAWYQQKPGQAPRLLIYGASSRATGIPDRFSGSGSGTDFTLTISRLEPEDFAVYYCQQYDNWPYTFGQGTKLEIK
# B14: E35-scFv HT28N (scFv, V domains shown)
# VH: QMQLVQSGAEVKKPGASVKVSCKVSGYNLTELSIHWVRQAPGKGLEWMGGFDPEDGETIYAQKFQGRVTMTGDTSTDTAYLELSSLRSEDTALYYCATGRYTSLATTYGFDYWGQGTLVTVSS
# VL: EIVMTQSPATLSLSPGERATLSCRASQSVSSYLAWYQQKPGQAPRLLIYGASSRATGIPDRFSGSGSGTDFTLTISRLEPEDFAVYYCQQYDNWPYTFGQGTKLEIK
# B15: E35-scFv LS26T (scFv, V domains shown)
# VH: QMQLVQSGAEVKKPGASVKVSCKVSGYTLTELSIHWVRQAPGKGLEWMGGFDPEDGETIYAQKFQGRVTMTGDTSTDTAYLELSSLRSEDTALYYCATGRYTSLATTYGFDYWGQGTLVTVSS
# VL: EIVMTQSPATLSLSPGERATLSCRATQSVSSYLAWYQQKPGQAPRLLIYGASSRATGIPDRFSGSGSGTDFTLTISRLEPEDFAVYYCQQYDNWPYTFGQGTKLEIK
# B16: E35-scFv HT28A (scFv, V domains shown)
# VH: QMQLVQSGAEVKKPGASVKVSCKVSGYALTELSIHWVRQAPGKGLEWMGGFDPEDGETIYAQKFQGRVTMTGDTSTDTAYLELSSLRSEDTALYYCATGRYTSLATTYGFDYWGQGTLVTVSS
# VL: EIVMTQSPATLSLSPGERATLSCRASQSVSSYLAWYQQKPGQAPRLLIYGASSRATGIPDRFSGSGSGTDFTLTISRLEPEDFAVYYCQQYDNWPYTFGQGTKLEIK
# B17: E35-scFv HT28L (scFv, V domains shown)
# VH: QMQLVQSGAEVKKPGASVKVSCKVSGYLLTELSIHWVRQAPGKGLEWMGGFDPEDGETIYAQKFQGRVTMTGDTSTDTAYLELSSLRSEDTALYYCATGRYTSLATTYGFDYWGQGTLVTVSS
# VL: EIVMTQSPATLSLSPGERATLSCRASQSVSSYLAWYQQKPGQAPRLLIYGASSRATGIPDRFSGSGSGTDFTLTISRLEPEDFAVYYCQQYDNWPYTFGQGTKLEIK
# B18: E35-scFv LS26N (scFv, V domains shown)
# VH: QMQLVQSGAEVKKPGASVKVSCKVSGYTLTELSIHWVRQAPGKGLEWMGGFDPEDGETIYAQKFQGRVTMTGDTSTDTAYLELSSLRSEDTALYYCATGRYTSLATTYGFDYWGQGTLVTVSS
# VL: EIVMTQSPATLSLSPGERATLSCRANQSVSSYLAWYQQKPGQAPRLLIYGASSRATGIPDRFSGSGSGTDFTLTISRLEPEDFAVYYCQQYDNWPYTFGQGTKLEIK
# B19: E35-scFv LS26R (scFv, V domains shown)
# VH: QMQLVQSGAEVKKPGASVKVSCKVSGYTLTELSIHWVRQAPGKGLEWMGGFDPEDGETIYAQKFQGRVTMTGDTSTDTAYLELSSLRSEDTALYYCATGRYTSLATTYGFDYWGQGTLVTVSS
# VL: EIVMTQSPATLSLSPGERATLSCRARQSVSSYLAWYQQKPGQAPRLLIYGASSRATGIPDRFSGSGSGTDFTLTISRLEPEDFAVYYCQQYDNWPYTFGQGTKLEIK
# B20: E35-scFv HT28W (scFv, V domains shown)
# VH: QMQLVQSGAEVKKPGASVKVSCKVSGYWLTELSIHWVRQAPGKGLEWMGGFDPEDGETIYAQKFQGRVTMTGDTSTDTAYLELSSLRSEDTALYYCATGRYTSLATTYGFDYWGQGTLVTVSS
# VL: EIVMTQSPATLSLSPGERATLSCRASQSVSSYLAWYQQKPGQAPRLLIYGASSRATGIPDRFSGSGSGTDFTLTISRLEPEDFAVYYCQQYDNWPYTFGQGTKLEIK
# Biological target: T1, human GM-CSFRα, full length on cells
# Test: cell-based or functional assay
row,Binder,"IC50, TF-1 cell proliferation [µg/mL]"
1,B1,0.091
2,B2,0.11
3,B3,0.078
4,B4,0.073
5,B5,0.16
6,B6,0.093
7,B7,0.075
8,B8,0.12
9,B9,0.217
10,B10,0.062
11,B11,0.044
12,B12,0.11
13,B13,0.069
14,B14,0.17
15,B15,0.081
16,B16,0.13
17,B17,0.1
18,B18,0.054
19,B19,0.072
20,B20,0.11
